Results on one sequence are retold here after paper PMC6661058.

The data set has as its target T1, CepR (His-tagged response regulator) (Streptomyces clavuligerus F613-1) (UniProt E2PWN2).
T1 sequence: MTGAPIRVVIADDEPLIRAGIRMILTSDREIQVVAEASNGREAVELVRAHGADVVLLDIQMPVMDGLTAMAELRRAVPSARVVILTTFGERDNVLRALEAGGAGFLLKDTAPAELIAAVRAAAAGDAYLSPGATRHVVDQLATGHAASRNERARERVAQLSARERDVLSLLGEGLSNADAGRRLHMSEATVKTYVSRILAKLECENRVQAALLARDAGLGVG
In words: EMSA. Particulars: EMSA with 0.5-3.0 ug His-CepR and 1.0 ug poly(dI-dC); buffer, salt, pH and temperature not given (as in Fu et al. 2019; Zhang et al. 2015).

For “ATGGTCGTCCGATCGCCGCACGATCACTGATCAAGCCCTGCCCCACCCCGGCGCAAAAATTATCCGCCGGGTCATCACGCGTCATCACCACGTAATTCGGGACGGGAATACCCTGCCGCATTCCCGCCGGGGCGGCCCGGTGGGGCGGCTCCCCTCCCGCAGGCGCGGCGGTGCCCGTCGCACACTCAAGGAAGAGGGCAATGAACGA (double strand) [cefD-cmcI intergenic P1]”, the binding entry was “no binding”.
